Experimental data: IntAct's records for PubMed 15143163

B1: Low-density lipoprotein receptor-related protein 5 (Homo sapiens), O75197 (parent)
chain: MEAAPPGPPWPLLLLLLLLLALCGCPAPAAASPLLLFANRRDVRLVDAGGVKLESTIVVSGLEDAAAVDFQFSKGAVYWTDVSEEAIKQTYLNQTGAAVQNVVISGLVSPDGLACDWVGKKLYWTDSETNRIEVANLNGTSRKVLFWQDLDQPRAIALDPAHGYMYWTDWGETPRIERAGMDGSTRKIIVDSDIYWPNGLTIDLEEQKLYWADAKLSFIHRANLDGSFRQKVVEGSLTHPFALTLSGDTLYWTDWQTRSIHACNKRTGGKRKEILSALYSPMDIQVLSQERQPFFHTRCEEDNGGCSHLCLLSPSEPFYTCACPTGVQLQDNGRTCKAGAEEVLLLARRTDLRRISLDTPDFTDIVLQVDDIRHAIAIDYDPLEGYVYWTDDEVRAIRRAYLDGSGAQTLVNTEINDPDGIAVDWVARNLYWTDTGTDRIEVTRLNGTSRKILVSEDLDEPRAIALHPVMGLMYWTDWGENPKIECANLDGQERRVLVNASLGWPNGLALDLQEGKLYWGDAKTDKIEVINVDGTKRRTLLEDKLPHIFGFTLLGDFIYWTDWQRRSIERVHKVKASRDVIIDQLPDLMGLKAVNVAKVVGTNPCADRNGGCSHLCFFTPHATRCGCPIGLELLSDMKTCIVPEAFLVFTSRAAIHRISLETNNNDVAIPLTGVKEASALDFDVSNNHIYWTDVSLKTISRAFMNGSSVEHVVEFGLDYPEGMAVDWMGKNLYWADTGTNRIEVARLDGQFRQVLVWRDLDNPRSLALDPTKGYIYWTEWGGKPRIVRAFMDGTNCMTLVDKVGRANDLTIDYADQRLYWTDLDTNMIESSNMLGQERVVIADDLPHPFGLTQYSDYIYWTDWNLHSIERADKTSGRNRTLIQGHLDFVMDILVFHSSRQDGLNDCMHNNGQCGQLCLAIPGGHRCGCASHYTLDPSSRNCSPPTTFLLFSQKSAISRMIPDDQHSPDLILPLHGLRNVKAIDYDPLDKFIYWVDGRQNIKRAKDDGTQPFVLTSLSQGQNPDRQPHDLSIDIYSRTLFWTCEATNTINVHRLSGEAMGVVLRGDRDKPRAIVVNAERGYLYFTNMQDRAAKIERAALDGTEREVLFTTGLIRPVALVVDNTLGKLFWVDADLKRIESCDLSGANRLTLEDANIVQPLGLTILGKHLYWIDRQQQMIERVEKTTGDKRTRIQGRVAHLTGIHAVEEVSLEEFSAHPCARDNGGCSHICIAKGDGTPRCSCPVHLVLLQNLLTCGEPPTCSPDQFACATGEIDCIPGAWRCDGFPECDDQSDEEGCPVCSAAQFPCARGQCVDLRLRCDGEADCQDRSDEADCDAICLPNQFRCASGQCVLIKQQCDSFPDCIDGSDELMCEITKPPSDDSPAHSSAIGPVIGIILSLFVMGGVYFVCQRVVCQRYAGANGPFPHEYVSGTPHVPLNFIAPGGSQHGPFTGIACGKSMMSSVSLMGGRGGVPLYDRNHVTGASSSSSSSTKATLYPPILNPPPSPATDPSLYNMDMFYSSNIPATARPYRPYIIRGMAPPTTPCSTDVCDSDYSASRWKASKYYLDLNSDSDPYPPPPTPHSQYLSAEDSCPPSPATERSYFHLFPPPPSPCTDSS
partner: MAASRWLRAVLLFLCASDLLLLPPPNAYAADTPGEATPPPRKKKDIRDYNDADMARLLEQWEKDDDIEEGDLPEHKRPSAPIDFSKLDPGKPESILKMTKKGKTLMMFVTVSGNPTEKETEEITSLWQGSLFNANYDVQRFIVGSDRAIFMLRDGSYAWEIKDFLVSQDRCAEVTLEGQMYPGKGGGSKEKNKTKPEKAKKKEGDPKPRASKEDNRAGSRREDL

Variants of: B1
Details: with mesd_mouse Mesd
G171V was tested, and the “effect of a mutation on the interaction” value was “disrupting interaction”.
